Reference: a protein production outcome set (Wang et al. 2014)

test: label from the status in PepcDB records
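Note: failed if final PepcDB status was selected cloned or expressed and not failed if soluble or beyond.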

Sequence	protein production
MTPAAHPPRAAIADIAGHLPEQVLTNDVLAQLYPDWPAEKILAKTGIRERRIAAPRETAADLAYEAARKLFAQGAVGADQVDFVILCTQAPDYVLPTSACMLQHRLGIPTHAGALDVNLGCSGYVYGLSLAKGLVETGAARCVLLLTADTYSKYLHPLDKSVRTLFGDGASATAVIAEHGELERIGPFVFGTDGRGAPNLIVKAGLFREPKSADSAREHEDASGNVRTDEHLYMNGAEVMAFSLAEVPRAADRLLALAGEPRENIDCFVLHQANRFMLDALRKKMKIPEHKFPVLMEHCGNTVSSTLPLALETMRANGTLARGMRLMLLGFGVGYSWAGCLVNF	not failed
MTPDFQIVTQRLQLRLITADEAEELVQCIRQSQTLHQWVDWCHALFSQQEAEQFIQATRLNWVKAEAYGFGVFERQTQTLVGMVAINEFYHTFNMASLGYWIGDRYQRQGYGKEALTALILFCFERLELTRLEIVCDPENVPSQALALRCGANREQLAPNRFLYAGEPKAGIVFSLIP	not failed
MTPDSSVYKALLESTKAIPWKINWQTMAFEYIGPQIEALLGWPQGSWKSVEDWATRMHPEDQEWVVNFCVKQSECGVDHEADYRALHRDGHYVWIRDVVHVVRDDSGEVEALIGFMFDISLEHHHHHH	not failed
MTPEAAYQNLLEFQRETAYLASLGALAAWDQRTMIPKKGHEHRARQMAALARLLHQRMTDPRIGEWLEKVEGSPLVQDPLSDAAVNVREWRQAYERARAIPERLAVELAQAESEAESFWEEARPRDDWRGFLPYLKRVYALTKEKAEVLFALPPAPGDPPYGELYDALLDGYEPGMRARELLPLFAELKEGLKGLLDRILGSGKRPDTSILHRPYPVEAQRRFALELLSACGYDLEAGRLDPTAHPFEIAIGPGDVRITTRYYEDFFNAGIFGTLHEMGHALYEQGLPKEHWGTPRGDAVSLGVHESQSRTWENLVGRSLGFWERFFPRAREVFASLGDVSLEDFHFAVNAVEPSLIRVEADEVTYNLHILVRLELELALFRGELSPEDLPEAWAEKYRDHLGVAPKDYKDGVMQDVHWAGGLFGYFPTYTLGNLYAAQFFQKAEAELGPLEPRFARGEFQPFLDWTRARIHAEGSRFRPRVLVERVTGEAPSARPFLAYLEKKYAALYG	not failed
MTPEIAIGLVTALGLGALVGLERQWRQRSSGMATHAMVALGAASFSILPLLLDNEVSVTRMAAQVVSGIGFLGAGVIMRDGLSVRGLSTAASIWSTGAIGVLAGSGFILAACMTTALIVIANLFLPALGRVVDRHTSGEAEQERFYQISVSCEARNEALVRMQLLQRMGDNRLNLQSLESHALKGSGNVEVNAVVFTLHKEDSLVEQMVGELCLAPQVTAASWVMNPAAE	failed
MTPGGLFLPYHSLPQPDFLASCPTRHLKLCQCPGILAENPHQFSPTFPPGKGSCQHGALPGQVSLKEAAHTEMSLSGQDLFPSPAHPPLQPFWLPFSLCLSTPFLVADNELRLPKGQICPLHVFVLANRVVLKLCANSVWEHSKGIT	failed
MTPGTIFLSSQVLMPSEDDTKRFHLAEGQELFYLERVRTADGQPIVYCIDKIPMNILPNSFSHQQESMFDLLEKNSGSVISYAVTDIEPIGYHDTISPVLECDPETALLLLKQTHYDQHDKPVLYSLNYFRA	not failed
MTPIHVVGIGLDGLPGLAAAVQQIIDSATLLVGSDRHLQLIPQGDTPRLSLGNFNASLKAIQTHLDTTANPQVVILTSGDPLFYGLGRWLLEVFAPDQLTFHPHLSAVQLAFSRLKLPWQDAVIYSAHGRDLAGLVPLLQRGVEKIAIYTDGEANIAAISRLYQALHIPVTYRAWVCQALGSAEEAILPWDLAQPVTALPPVHPLNLVVLLRQPQRLPPREQPIVGLGDDQFFTFADRPSLMTKREVRVLVLAELALTSTVEIVWDIGAGTGSVAVEIARLAPQATIYAIEKTAIGFQLIERNRRAFGLANLIPLQGTAPQCLRDLPPPDRVFIGGSGAQLLANLDYCWSHLNAGGRLVLAIATLEHQGQVLHWCQTHQINPQVLQVQLSRSVP	failed
MTPLPPRPGPGARLARPAAAVLLVAAIGALAAFAPGPATRALESLRQSAPAAAAALAAAYVASGPLMIPAPLLHLAAGFALGPVSGSLVAIPASTLGACAAFAAGRWLVRERAARLAARSPALAGVDAALAASGFRVVLLLRLAPLAPFTVLNYLLGATPVPLRAFALASLLGSVPGLILSVYVGSLAADAAALRATVDAGRGGPGALILPAIGTGAILLAISWVLRRALAASAGARPPPA	failed
MTPNRRPRPSGAEVRRKIRGPDGLALLPSGRVSWLPDDFVHPVLVPLPGGDHHLRPIRETDTPLDYPAVMGSRERLWTVYGPAWGWPAATMTYEADRADLLRHEKEIAAHQSFNYALFDTAETALLGCVYIDPPERAGADGDISWWVVDELVDSTVERALDALVPQWIAADWPFERPRFIGREISWSDYLALPGIPTVP	failed
MTPPPAPKTPSTLLRRHLGRAVGAAYLAAATAPGPGMWLRHPHRIAVVGLPDLSLNTAPFLLSLVLFTAGLQVPPRDLGRLVGRPAALLTGLALHLLAPLLIVPGVAFALRQSPDSDGGSGLVAAMILVVAMPVAAGATVWTGAGEGDQSTTVGLVLASTLASPLTVPFTVTALCPLLSADYADTLAGAARIAGSGFALTGVVLPCAAGLVARLALPRRALDALLHAAVPTAALGSLLLTYVNASGVLGPFLTRPRPVLLAAALAVAATVCGLSFALGRITARVLRLDAHAGASVTLACGMNNSSASAVLITTALPDRPQVLLPVLAYGLLQKVAAGRVVRGGHHSGRGA	failed
MTPQSDTPKVTGLKLKRKSRQLEISFDNGQQFTLSCELLRVYSPSAEVHGHGNPVLVTHKKNVNINAITPVGNYAVKLVFDDGHDTGLYSWKVLYDLASNQVDLWENYLARLRAAKASREPLIDMAVKYHT	not failed
MTPSISLITSYSLLPAILMLIGGGIASLYRPGGSITSATQHFAAGVVFAAVAKELLPKIGAYHDPLALIIGFSVGILAMLFLKWLANRLEDLEQEKTGLSWGLLTAVGIDLLIDGILIGVAFLAGERGGILIAIALAIEIFFLGLSTTATLGARQVNVPIRLLTSVILAILIPVGAALGASLLIHLPLSITNGILSFGVAALLYLVTEELLLEAHGVRETPYITLCFFIGFLLILLLEGLAA	failed
MTPTPLHSITPFSMLDFPSMLSCILWFSGCNLACSYCYNPEFLKESGKIDLEGLLSFLRSRVGLLEGVVFSGGEATLFAGLPLWMEEVRSLGFKIKLDTNGTNPAMLKELLQKGYLDYVAMDFKGKEERFGMITGREFYGRFLESLEILLSSSIPFEIRTTVHSYLLQEEDIAEMAALLKERGYKGAFYLQHFVGEKETLKPLPESRRLKLDEEAIETKIIWR	failed
MTPVQIAAVVVTYESSSTIDACLSRLRAAEGISEIRVVDNASSDDTLEVVQRHALADARLHFIANPDNPGFATACNQGARDSQAPWLVFINPDLMIARDTLLQLYHRAAGHPAVLLGVEQVDEQGRPDAAVRRRDPDFAAMLRAPRAAANLAVPADPSRALQPVDAISGALMLMQRSLFDRLDGWDGSYRLHAEDLDLCRRARQAGALVAVANDLHVLHVRGVSSRARPFFVEWHKHRGLWRYFRKFEADRRGLLTRLGVWLAIWSHAAAQVPRLLQNKLEHHHHHH	failed
MTQANLSETLFKPRFKHPETSTLVRRFSHGAQPPVQSALDGKTIPHWYRMINRLMWIWRGIDPREILDVQARIVMSDAERTDDDLYDTVIGYRGGNWIYEWATQAMVWQQKACAEEDPQLSGRHWLHAATLYNIAAYPHLKGDDLAEQAQALSNRAYEEAAQRLPGTMRQMEFTVPGGAPITGFLHMPKGDGPFPTVLMCGGLDAMQTDYYSLYERYFAPRGIAMLTIDMPSVGFSSKWKLTQDSSLLHQHVLKALPNVPWVDHTRVAAFGFRFGANVAVRLAYLESPRLKVVACLGPVVHTLLSDFKCQQQVPEMYLDVLASRLGMHDASDEALRVELNRYSLKVQGLLGRRCPTPMLSGYWKNDPFSPEEDSRLITSSSADGKLLEIPFNPVYRNFDKGLQEITDWIEKRLC	failed
MTQDASPILTSLLDTDAYKLHMQQAVFHHYRHITVAAEFRCRSDELLGVYADEIRHQVTLMGQLALTSDEFIYLSSLPFFQDDYLHWLRDFRFKPEQVSVAVHDGKLDIRIAGLWCEVIMWEVPLLAVISEIVHRRRSTQVTTDQAVQQLRTKLEQFNALSADIDITHFKLMDFGTRRRFSREIQHTVVSTLKDEFPYLVGTSNYDLARTLALAPVGTQAHEWFQAHQQISPTLANSQRVALQVWLDEYPNQLGIALTDCITMDAFLRDFDLAFANRYQGLRHDSGDPIEWGEKAIAHYEKLGIDPMKKVLVFSDNLDLEKALFLYRHFYQRIKLVFGIGTRLTCDIPDVKPLNIVIKLVECNDKPVAKLSDSPGKTICQDPAFVDQLRKAFALPLVKKAS	not failed
MTQDELLVLIEQAATEGWRELDLSGQELTELPGEIGKLQQLESLILGKQVGGYEKVGYRIFQKALGNNLKTLPIELLSLPNLRKLDISGNPLEGIPDVVMQILHLEELILIRVQLTEIPEALAKLTNLTQLILSDNQITEIPEALAKLTNLTQLNLSYNQITEIPEALAKLTNLTQLNLSYNQITEIPEALAKLTNLTQLNLRGNQRTEIPEALAKLTNLTRLNLSYNQRTEIPEALAKLTNLTQLILSDNQIKEIPETIAKLTNLTHLILSGNQIKEIPETIAKLTNLTQLGLDGNQIKEIPEAIAKLTNLTQLGLDGNQIKEIPEAITKLTNLTHLILSGNQIKEIPETIAKLTNLTQLALSSNQITEIPEVLAQLTNLTQLFLSSNQITQIPEALAPLTNLTTLHLRVNQITQIPEAIESLPKLELLDLRGNPLPISPEILGSVYQVGSVEEIFNYLRLLRSGEVRPLNEAKLLLVGQGSVGKTSLIERLIHNKYDRNQPQTDGLKVETWNVQVNSKDIRLNVWDFGGQEIYHATHQFFLTKRSLYLLVCNCRTSEEENRIEYWLKLIESFGGQSPVIIVGNKKDEQPLDINRKALREKYPNIQAIIETSCQDNIGIDELRTAILQQVGNLKEVYDLLPLSWFEVKQQLESMSQDFITYSSYIGICYENKIPEEHNQEQLIDLLHRLGLVLNFREHPILRDTNVLKPNWVTEGIYALLSDENLKTKSKGIFTPADLTRVLNPERYPTKRHGYLIELMKEFELGFELACYPPQFLIAGLLPKDQPDATELEGETLEFQYHYKVLPESIISRFIVNTHERIHNQIYWRSGVMLQYQQHNEIYNIARIKADPEDKKIFIAISGRKETRRSFLAILRDVFQKIHKSLANLEITEWVPVPGYPNHPPLDYQELLGLETMGILEYPIGKLKININIRQLLDGYESLESRRKLQKGDHDLDDRTAYEDILDIAKLAVSRPIITKAEAKAVSENPQFTNNLQGANIANFANEVKDNASQQASNFNQTSGANIAEIMQLINNLRQTVAQFPPEIRDDIIIDIDDVEVEIQKPEKERNTPKLKKRLAALLTAASVAAAPIASVVDFTNNVMELGSKLGIELIQPSP	failed
MTQDEQICSLALTRIPGLGPTGAFRLVSSLGSATRVFEHRKELSQLVPGVSEKIITALNNSEAFRRAEQELTFCEKNHIRCLTLNDEGYPGRLRECDDAPLALFYRGNADLNALHVINMVGTRHATPYGQDICTRFLADLSVLCPNALIVSGLAYGIDIHAHRAALQNHFKTIGVLAHGLDRIYPAEHRKTAVSMLEQGGLLTEFTSGTNPDRQNFVKRNRIVAGMSDATVVIESAAKGGALITAELAESYHRDCFAFPGRCNDEYSIGCNNLIRKNQAVLITSAEDLVKAMGWESSPKTEKTVQRELFPDLSEEEERIVKRLGKMSEGLQINTLVIDTNIPVNRMSALLFELEMKGVIRALAGGVYRLIM	not failed
MTQDGTNILILGSDQRVTQGSTDARTDTIMVVNVGNHAKKIKMVSFMRDTLINIPGYSYNDNSYDLKLNSAFNLGEQEDHHGAEYVRRALKHNFDIDIKYYVMVDFETFAEAIDTLFPNGVKIDAKFATVGGVAVDSVEVPDDLRMKNGVVPNQTIEVGEQRMDGRTLLNYARFRKDDEGDFGRTVRQQQVMSAVMSQIKDPTKLFTGSAAIGKIYALTSTNVSFPFVVKNGVSVLGSGKNGVEHVTIPENGDWVDEYDMYGGQALYIDFDKYQKTLAKLGLRLEHHHHHH	not failed
